What is called Kd is the free concentration of one partner at which half of the binding sites on the other are occupied at equilibrium, for simple one-to-one binding.

Data on 24 molecules can be found in patent US20210355194A1 (TWIST BIOSCIENCE, published 2021).

For the assay, the target named is T1, Acro SARS-CoV-2 (COVID-19) S1 protein (SARS-CoV-2, UniProt P0DTC2 16-685).
T1 construct: also called SARS-CoV-2 S1
Nature of the assay: SPR. On the technique in general: Surface plasmon resonance follows binding to a sensor surface in real time, without labels.

B1: variant 6-51 (Fc fusion)
VHH: EVQLVESGGGLVQPGGSLRLSCAASGYTYSSYVMGWFRQAPGKEREFVAAISRFGSTYYADSVKGRFTISADNSKNTAYLQMNSLKPEDTAVYYCARDSGEHFWDSGYIDHWGQGTLVTVSS
The molecule B1 returned a Kd of 35.2 nM. This counts as double-digit nanomolar.

B2: variant 6-79 (Fc fusion)
VHH: EVQLVESGGGLVQPGGSLRLSCAASGSISSIDYMGWFRQAPGKEREGVSWISSSDGSTYYADSVKGRFTISADNSKNTAYLQMNSLKPEDTAVYYCARSPSFSQIYYYYYMDVWGQGTLVTVSS
For the molecule B2, the Kd is 158 nM.

B3: variant 6-65 (Fc fusion)
VHH: EVQLVESGGGLVQPGGSLRLSCAASGLPFSTLHMGWFRQAPGKEREFVASLSIFGATGYADSVKGRFTISADNSKNTAYLQMNSLKPEDTAVYYCWMYYYDSSGYYGNYYYGMDVWGQGTLVTVSS
B3 gave a Kd of 890 nM.

B4: variant 6-47 (Fc fusion)
VHH: EVQLVESGGGLVQPGGSLRLSCAASGRTFSMHAMGWFRQAPGKERELVASITYGGNINYADSVKGRFTISADNSKNTAYLQMNSLKPEDTAVYYCAKEGYYDSTGYRTYFQQWGQGTLVTVSS
Take B4: the dissociation constant (Kd) amounted to 43.9 nM. This Kd lies about 20-fold lower than the previous one.

B5: variant 6-49 (Fc fusion)
VHH: EVQLVESGGGLVQPGGSLRLSCAASGSTVLINAMGWFRQAPGKEREFVAAISWSPGRTDYADSVKGRFTISADNSKNTAYLQMNSLKPEDTAVYYCARDCSGGSCYSGDYWGQGTLVTVSS
Molecule B5 yielded a dissociation constant Kd of 58.2 nM.

B6: variant 6-46 (Fc fusion)
VHH: EVQLVESGGGLVQPGGSLRLSCAASGLTFSAMGWFRQAPGKEREFVALIRRDGSTIYADSVKGRFTISADNSKNTAYLQMNSLKPEDTAVYYCAALGILFGYDAFDIWGQGTLVTVSS
B6: the Kd stood at 18.1 nM.

B7: variant 6-54 (Fc fusion)
VHH: EVQLVESGGGLVQPGGSLRLSCAASGFEFENHWMGWFRQAPGKEREYVAHITAGGLSNYADSVKGRFTISADNSKNTAYLQMNSLKPEDTAVYYCGRHWGIYDSSGFSSFDYWGQGTLVTVSS
Turning to B7, the affinity, expressed as Kd, was 144 nM.

B8: variant 6-57 (Fc fusion)
VHH: EVQLVESGGGLVQPGGSLRLSCAASGLTFDDHSMGWFRQAPGKEREFVAAVPLSGNTYYADSVKGRFTISADNSKNTAYLQMNSLKPEDTAVYYCASFSGGPADFDYWGQGTLVTVSS
In turn, B8 had a dissociation constant (Kd) of 205 nM.

B9: variant 6-72 (Fc fusion)
VHH: EVQLVESGGGLVQPGGSLRLSCAASGSTLSINAMGWFRQAPGKEREFVAAIDWSGGSTAYADSVKGRFTISADNSKNTAYLQMNSLKPEDTAVYYCARDSSATRTGPDYWGQGTLVTVSS
As for B9, the Kd turned out to be 92.8 nM.

B10: variant 6-81 (Fc fusion)
VHH: EVQLVESGGGLVQPGGSLRLSCAASGFIGNYHAMGWFRQAPGKEREFVAAVTWSGGTTNYADSVKGRFTISADNSKNTAYLQMNSLKPEDTAVYYCAREGYYYDSSGYPYYFDYWGQGTLVTVSS
For B10, the dissociation constant (Kd) stood at 12.9 nM. Against the preceding molecule, the Kd is about 7.2-fold lower.

B11: variant 6-71 (Fc fusion)
VHH: EVQLVESGGGLVQPGGSLRLSCAASGITFSNDAMGWFRQAPGKEREFVAIITSSDTNDTTNYADSVKGRFTISADNSKNTAYLQMNSLKPEDTAVYYCARLHYYDSSGYFDYWGQGTLVTVSS
Consider B11, for which binding was put at a Kd of 155 nM.

B12: variant 6-68 (Fc fusion)
VHH: EVQLVESGGGLVQPGGSLRLSCAASGFTLSDRAMGWFRQAPGKEREYVAHITAGGLSNYADSVKGRFTISADNSKNTAYLQMNSLKPEDTAVYYCVHLASQTGAGYFDLWGQGTLVTVSS
As to B12, the Kd is 102 nM. Compared with the last molecule, the Kd is about 1.5-fold lower.

B13: variant 6-82 (Fc fusion)
VHH: EVQLVESGGGLVQPGGSLRLSCAASGSSLDAYGMGWFRQAPGKEREFVAAISWGGGSIYYADSVKGRFTISADNSKNTAYLQMNSLKPEDTAVYYCARLSQGMVALDYWGQGTLVTVSS
In turn, B13 showed a Kd of 7.1 nM.

B14: variant 6-90 (Fc fusion)
VHH: EVQLVESGGGLVQPGGSLRLSCAASGFPFSIWPMGWFRQAPGKEREFVAAVRWSSTYYADSVKGRFTISADNSKNTAYLQMNSLKPEDTAVYYCATGECDGGSCSLAYWGQGTLVTVSS
Consider B14, for which the dissociation constant Kd was 114 nM. This Kd is about 16-fold higher than that of the molecule before.

B15: variant 6-84 (Fc fusion)
VHH: EVQLVESGGGLVQPGGSLRLSCAASGFTPDDYAMGWFRQAPGKEREFVAAINSGGSYTYYADSVKGRFTISADNSKNTAYLQMNSLKPEDTAVYYCARDRGPWGQGTLVTVSS
Turning to B15, the dissociation constant (Kd) stood at 82.6 nM.

B16: variant 6-75 (Fc fusion)
VHH: EVQLVESGGGLVQPGGSLRLSCAASGGTFSTYWMGWFRQAPGKEREFVAAISRSGGNTYYADSVKGRFTISADNSKNTAYLQMNSLKPEDTAVYYCVRHSGTDGDSSFDYWGQGTLVTVSS
On to B16, for which the Kd was determined as 181 nM.

B17: variant 6-74 (Fc fusion)
VHH: EVQLVESGGGLVQPGGSLRLSCAASGFAFGDSWMGWFRQAPGKERELVAAITSGGSTDYADSVKGRFTISADNSKNTAYLQMNSLKPEDTAVYYCARGLLWFGELFGYWGQGTLVTVSS
In the case of B17, the Kd was 73.9 nM.

B18: variant 6-70 (Fc fusion)
VHH: EVQLVESGGGLVQPGGSLRLSCAASGFNLDDYADMGWFRQAPGKEREFVAAIGWGGGSTRYADSVKGRFTISADNSKNTAYLQMNSLKPEDTAVYYCAREILWFGEFGEPNVWGQGTLVTVSS
B18 displayed a Kd of 35.9 nM.

B19: variant 6-62 (Fc fusion)
VHH: EVQLVESGGGLVQPGGSLRLSCAASGSTFSGNWMGWFRQAPGKEREFVAVISWTGGSTYYADSVKGRFTISADNSKNTAYLQMNSLKPEDTAVYYCATHNSLSGFDYWGQGTLVTVSS
In turn, B19 returned a Kd of 151 nM.

B20: variant 6-63 (Fc fusion)
VHH: EVQLVESGGGLVQPGGSLRLSCAASGQTFNMGWFRQAPGKEREFVAAIGSGGSTSYADSVKGRFTISADNSKNTAYLQMNSLKPEDTAVYYCWRLGNDYFDYWGQGTLVTVSS
notes: VHH-Fc
Turning to B20, the Kd was found to be 21.8 nM.

B21: variant 6-66 (Fc fusion)
VHH: EVQLVESGGGLVQPGGSLRLSCAASGLTFSLFAMGWFRQAPGKERELVAAISSGGSTDYADSVKGRFTISADNSKNTAYLQMNSLKPEDTAVYYCARGNTKYYYDSSGYSSAFDYWGQGTLVTVSS
The molecule B21 showed a Kd of 293 nM.

B22: variant 6-52 (Fc fusion)
VHH: EVQLVESGGGLVQPGGSLRLSCAASGDTYGSYWMGWFRQAPGKEREVVAAITSGGSTVYADSVKGRFTISADNSKNTAYLQMNSLKPEDTAVYYCARVDSRFDYWGQGTLVTVSS
As to B22, the equilibrium dissociation constant (Kd) was determined as 31.2 nM. This Kd is about 9.4-fold lower than that of the molecule before.

B23: variant 6-53 (Fc fusion)
VHH: EVQLVESGGGLVQPGGSLRLSCAASGISINTNVMGWFRQAPGKEREFVAAISTGSVTIYADSVKGRFTISADNSKNTAYLQMNSLKPEDTAVYYCARVDDFGYFDLWGQGTLVTVSS
As to B23, binding was put at a Kd of 140 nM.

B24: variant 6-67 (Fc fusion)
VHH: EVQLVESGGGLVQPGGSLRLSCAASGSFSNYAMGWFRQAPGKEREFVAAISSSGALTSYADSVKGRFTISADNSKNTAYLQMNSLKPEDTAVYYCWIVGPGPLDGMDVWGQGTLVTVSS
As to B24, the affinity, expressed as Kd, was 55.6 nM.
